In patent publication US10654917B2, “Antibody molecules and peptide delivery systems for use in alzheimer's disease and related disorders” (TECHNOPHAGE, INVESTIGAÇĀO E DESENVOLVIMENTO EM …, priority 2015, dated 2020):

B1: #2: anti-BAP42 sdAb, SEQ ID NO: 1 (antibody, V domains shown)
VL: ELVMTQTPSPVSAAVGGTVSISCQSSKSVYNNNWLSWFQQKPGQPPKLLIYSASTLASGVSSRFKGSGSGTQFTLTISDVQCDDAATYYCQGEFDCSGDCNVFGGGTELEIL
B2: #26: anti-BAP42 sdAb, SEQ ID NO: 18 (antibody, V domains shown)
VL: ELDLTQTPSPVSAAVGGTVTISCQSSESVYSNNRLAWYQQKPGQPPKLLIYLASSLASGVPSRFKGSGSGTQFTLTIRDLECDDAATYYCLGYRSGSDGDAFGGGTELEIL
B3: #20: anti-BAP42 sdAb, SEQ ID NO: 2 (protein)
VHH: ELDLTQTPSSKSVPVGDTVTINCQASESVYSNNRLAWFQQKPGQPPKLLIYYASTLASGVPSRFKGSGSGTQFTLTISDVVCDDAATYYCAGYKSSTSDGIAFGGGTEVVVK
modifications: /note=“Description of Unknown rabbit immunoglobulin VL domain polypeptide”; /note=“#20”

Assays:
[1] = CAT-fusion assay: chloramphenicol resistance as measure of sdAb stability; format: cell-based, E. coli
Source text: Clones were further selected for stability using a modified CAT-fusion assay, as previously described (see, e.g., WO 2008/136694 to Goncalves et al). Specifically, the CAT gene was amplified from pCAT (Stratagene) by PCR and inserted into pET-derived plasmid using EcoRI and SphI restriction sites to create the pE-CAT. The 5′PCR primer originally used to clone the variable domains was also designed to contain two sequential and different SfiI cloning sites, and an amber codon (TAG) just before the beginning of the CAT gene.
To clone single-domain antibody libraries fused into the CAT gene, SDVL fragments were generated by PCR from phagemid vectors selected by panning. The resulting SDVL PCR fragments were gel-purified, digested with the restriction endonuclease SfiI, and cloned independently into the appropriately SfiI-cut vector pE-CAT. The pSDVL-CAT constructs were under the control of the strong Lac promoter that also included an N-terminal His6 affinity tag and the ampicillin resistance gene. Alternatively, SDVL fragments may be cloned into readily available vectors designed to express cloned sequences as fusion proteins with CAT, e.g., the PCFN1 vector (see Maxwell, et al (1999) J Prot Sci 8:1908-1911, incorporated by reference in its entirety).
Chloramphenicol resistance assays were performed by transforming ER2783 cells (New England Biolabs, Inc) with each single domain CAT-fusion library. The transformation mixtures were inoculated into 5 mL of SOC and incubated at 37° C. for 1 hour. Next, 10 mL of SB medium with 3 μL of 100 mg/ml ampicillin was added to each library. A total of 15 mL of each culture was shaken for 1 hour at 37° C. Subsequently, 4.5 μL of 100 mg/ml ampicillin was added and cultures shaken for one hour at 37° C. Then 85 mL of SB medium with 85 μL of 100 mg/ml ampicillin was added and cultures grown overnight at 37° C. The following day, 600 μL of each culture was used to inoculate 20 mL of SB medium containing 100 μg/mL of ampicillin.
Expression of CAT-fusion single domain proteins was induced by addition of 0.5 mM IPTG when the optical density of cultures reached 0.9 (at […]). After 2 hours of incubation at 37° C., 100 μL aliquots of each library were plated on agar plates with IPTG (200 μg/mL) and various concentrations of chloramphenicol. Plates were incubated at 37° C. for 16-20 hours. The level of resistance was quantified as the highest level of chloramphenicol at which colonies appeared after the 37° C. incubation period. […] Results are shown in Table 6, below, where +++ indicates over 600 colonies detected; ++ indicates 400-600 colonies detected; + indicates 1-399 colonies detected; and − indicates no colonies detected at the corresponding chloramphenicol concentration. “sdAb2”, “sdAb6”, “sdAb20”, and “sdAb26” are sdAb candidates that bind BAP42 oligomers.

oligomeric form of BAP42 = biological target: T1, oligomeric form of BAP42 (Homo sapiens, UniProt P05067); assay: BIAcore binding profile to BAP42 oligomers
T1 construct: “beta-amyloid peptide 42”, or “beta-amyloid peptide 1-42”; oligomerised in house (1 mg/mL, stirring 16 h at 37 °C, retained on 5 kDa filter)
Source text: Anti-oligomer sdAbs where characterized further regarding their relative binding profile to BAP42 oligomers by BIAcore.
Results are showing in FIGS. 16A-16D, respectively (kinetic studies) and Tables 14-16, respectively (biodistribution studies), presented below.

[2] = design: species or system CD1 mice; conditions: mouse, in vivo
Procedure: The different antibody-peptide constructs were used in biodistribution assays, and results compared with the biodistribution of the respective DEN2C peptides (pepH1, pepH2, pepH3, and pepM′, chemically synthesized). […] After expression and purification, the sdAbs and sdAb-peptide constructs were conjugated to technetium (^99Tc) and a biodistribution assay was performed, as previously described.
Tables 14-16 show the biodistribution of different anti-BAP42 sdAbs and constructs thereof with different peptides (“pepH3”).

[3] = 10^0, [chloramphenicol] 0.03 mM
[4] = 10^0, [chloramphenicol] 0.06 mM
[5] = 10^0, [chloramphenicol] 0.25 mM
[6] = 10^0, [chloramphenicol] 0.31 mM
[7] = 10^0, [chloramphenicol] 0.62 mM
[8] = 10^0, [chloramphenicol] 1.24 mM
[9] = 10^0, [chloramphenicol] 1.86 mM
[10] = 10^0, [chloramphenicol] 2.48 mM
[11] = 10^−2, [chloramphenicol] 0.03 mM
[12] = 10^−2, [chloramphenicol] 0.06 mM
[13] = 10^−2, [chloramphenicol] 0.25 mM
[14] = 10^−2, [chloramphenicol] 0.31 mM
[15] = 10^−2, [chloramphenicol] 0.62 mM
[16] = 10^−2, [chloramphenicol] 1.24 mM
[17] = 10^−2, [chloramphenicol] 1.86 mM
[18] = 10^−2, [chloramphenicol] 2.48 mM

T1 sequence (P05067 672-713 limits assumed): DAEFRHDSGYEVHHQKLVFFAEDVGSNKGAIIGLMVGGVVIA

Molecule	colonies detected (CAT-fusion chloramphenicol resistance) [1, 3]	colonies detected (CAT-fusion chloramphenicol resistance) [1, 4]	colonies detected (CAT-fusion chloramphenicol resistance) [1, 5]	colonies detected (CAT-fusion chloramphenicol resistance) [1, 6]	colonies detected (CAT-fusion chloramphenicol resistance) [1, 7]	colonies detected (CAT-fusion chloramphenicol resistance) [1, 8]	colonies detected (CAT-fusion chloramphenicol resistance) [1, 9]	colonies detected (CAT-fusion chloramphenicol resistance) [1, 10]	colonies detected (CAT-fusion chloramphenicol resistance) [1, 11]	colonies detected (CAT-fusion chloramphenicol resistance) [1, 12]	colonies detected (CAT-fusion chloramphenicol resistance) [1, 13]	colonies detected (CAT-fusion chloramphenicol resistance) [1, 14]	colonies detected (CAT-fusion chloramphenicol resistance) [1, 15]	colonies detected (CAT-fusion chloramphenicol resistance) [1, 16]	colonies detected (CAT-fusion chloramphenicol resistance) [1, 17]	colonies detected (CAT-fusion chloramphenicol resistance) [1, 18]	binding profile to the oligomeric form of BAP42 (oligomeric form of BAP42)	factor by which washout from the brain is slowed on linking to delivery peptide pepH3 [2]	factor of increase of presence in the brain on linking to delivery peptide pepH3 [2]
B1	+++ (+++ indicates over 600 colonies detected)	+++ (+++ indicates over 600 colonies detected)	+++ (+++ indicates over 600 colonies detected)	+++ (+++ indicates over 600 colonies detected)	+++ (+++ indicates over 600 colonies detected)	+++ (+++ indicates over 600 colonies detected)	+++ (+++ indicates over 600 colonies detected)	++ (++ indicates 400-600 colonies detected)	+++ (+++ indicates over 600 colonies detected)	+++ (+++ indicates over 600 colonies detected)	+++ (+++ indicates over 600 colonies detected)	+++ (+++ indicates over 600 colonies detected)	+++ (+++ indicates over 600 colonies detected)	+++ (+++ indicates over 600 colonies detected)	− (− indicates no colonies detected)	− (− indicates no colonies detected)	best binding profiles	about 2	about 3
B2	+++ (+++ indicates over 600 colonies detected)	+++ (+++ indicates over 600 colonies detected)	+++ (+++ indicates over 600 colonies detected)	+++ (+++ indicates over 600 colonies detected)	+++ (+++ indicates over 600 colonies detected)	+++ (+++ indicates over 600 colonies detected)	+++ (+++ indicates over 600 colonies detected)	++ (++ indicates 400-600 colonies detected)	+++ (+++ indicates over 600 colonies detected)	+++ (+++ indicates over 600 colonies detected)	+++ (+++ indicates over 600 colonies detected)	+++ (+++ indicates over 600 colonies detected)	+++ (+++ indicates over 600 colonies detected)	+++ (+++ indicates over 600 colonies detected)	− (− indicates no colonies detected)	− (− indicates no colonies detected)	best binding profiles		
B3	+++ (+++ indicates over 600 colonies detected)	+++ (+++ indicates over 600 colonies detected)	+++ (+++ indicates over 600 colonies detected)	+++ (+++ indicates over 600 colonies detected)	+++ (+++ indicates over 600 colonies detected)	+++ (+++ indicates over 600 colonies detected)	+++ (+++ indicates over 600 colonies detected)	++ (++ indicates 400-600 colonies detected)	+++ (+++ indicates over 600 colonies detected)	+++ (+++ indicates over 600 colonies detected)	+++ (+++ indicates over 600 colonies detected)	+++ (+++ indicates over 600 colonies detected)	+++ (+++ indicates over 600 colonies detected)	+++ (+++ indicates over 600 colonies detected)	− (− indicates no colonies detected)	− (− indicates no colonies detected)	best binding profiles		
